Experimental data reported in FireProtDB (doi:10.1038/s41598-019-41819-5).
“And” between values parts separate entries of the source, which are not always exact repeats. Equal values may be shown once.

B1: Forkhead box protein P1, Q9H334 (parent)
chain: MMQESGTETKSNGSAIQNGSGGSNHLLECGGLREGRSNGETPAVDIGAADLAHAQQQQQQALQVARQLLLQQQQQQQVSGLKSPKRNDKQPALQVPVSVAMMTPQVITPQQMQQILQQQVLSPQQLQVLLQQQQALMLQQQQLQEFYKKQQEQLQLQLLQQQHAGKQPKEQQQVATQQLAFQQQLLQMQQLQQQHLLSLQRQGLLTIQPGQPALPLQPLAQGMIPTELQQLWKEVTSAHTAEETTGNNHSSLDLTTTCVSSSAPSKTSLIMNPHASTNGQLSVHTPKRESLSHEEHPHSHPLYGHGVCKWPGCEAVCEDFQSFLKHLNSEHALDDRSTAQCRVQMQVVQQLELQLAKDKERLQAMMTHLHVKSTEPKAAPQPLNLVSSVTLSKSASEASPQSLPHTPTTPTAPLTPVTQGPSVITTTSMHTVGPIRRRYSDKYNVPISSADIAQNQEFYKNAEVRPPFTYASLIRQAILESPEKQLTLNEIYNWFTRMFAYFRRNAATWKNAVRHNLSLHKCFVRVENVKGAVWTVDEVEFQKRRPQKISGNPSLIKNMQSSHAYCTPLNAALQASMAENSIPLYTTASMGNPTLGNLASAIREELNGAMEHTNSNESDSSPGRSPMQAVHPVHVKEEPLDPEEAEGPLSLVTTANHSPDFDHDRDYEDEPVNEDME

Variants of: B1
Details: Homo sapiens, 37 °C, GdnHCl, fluorescence, transition: 3, structure 2KIU, whole UniProt chain shown

| Variant | denaturant m value (pH 5) | denaturant m value (pH 7.8) | unfolding free energy (pH 5) | unfolding free energy (pH 7.8) |
| --- | --- | --- | --- | --- |
| S518C | 3.2 kcal/mol/M and 1.4 kcal/mol/M | 2.7 kcal/mol/M and 2 kcal/mol/M | – | – |
| V539C | 3.1 kcal/mol/M and 1.1 kcal/mol/M | – | 1.4 kcal/mol and 4.2 kcal/mol | – |
| H520A | 5.8 kcal/mol/M | 6.6 kcal/mol/M | 17.9 kcal/mol | 20.2 kcal/mol |
